In EP1731161A1:

Biological target: tumor necrosis factor alpha (TNFα) (rat) (UniProt P16599)
Assay: cell-based or functional assay

UniProt P16599, sequence (P16599 80-235 limits assumed): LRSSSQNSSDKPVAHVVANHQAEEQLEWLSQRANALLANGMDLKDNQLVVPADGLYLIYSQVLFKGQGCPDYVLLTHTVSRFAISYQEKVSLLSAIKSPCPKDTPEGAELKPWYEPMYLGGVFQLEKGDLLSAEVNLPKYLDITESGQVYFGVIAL

Question: “TNFRII:Fc receptor fragment (from UniProt P20333 23-257) (Fc fusion)” was tested. Which SPH release from hypoxic (5 hrs) adult rat cardiomyocytes after pretreatment with TNFRII:Fc (fold reduction) did it give?
Answer: Its SPH release from hypoxic (5 hrs) adult rat cardiomyocytes after pretreatment with TNFRII:Fc (fold reduction) is 3.
